Reference: patent publication US8309791

Columns and labels:
Assay in all cases: cell_activity
[1] = system: Sleeping Beauty transposase SB11 (synthetic (reconstructed fish Tc1-like)?); details: colony formation in PEGE cells
[2] = system: Passport (PP, PPTN) transposase PTs1; details: colony formation in PEGE cells
Tol2 transposase = details: colony formation in PEGE cells
piggyBac transposase = details: colony formation in PEGE cells; TTAA target
[3] = system: rtTR-KRAB2S-M2 (Escherichia coli / Homo sapiens fusion?); details: tet-off version, shCFTR1 expression with vs without doxycycline in pig fibroblasts
[4] = system: tTR-KRAB (Escherichia coli / Homo sapiens fusion?); details: tet-on version, shCFTR1 expression with vs without doxycycline in pig fibroblasts

SB transposon inverted terminal repeats (pT2-FloxP-PTK, pKT2P-PTK)
activity (fold over no transposase) [1]: 13.5

PP transposon inverted repeats (pPTnP-PTK)
activity (fold over no transposase) [2]: 5

mini Tol2 transposon inverted repeats (pGTol2P-PTK)
activity (fold over no transposase) (Tol2 transposase): 21

piggyBac LTR1/LTR2 (pPBTP-PTK)
activity (fold over no transposase) (piggyBac transposase): 28

tet operator (TRE)
activity [3]: 67 fold change
activity [4]: 64 fold change
